B1: HCoV-229E S-protein receptor-binding domain (RBD), residues 293–435, WT (Class I) (domain or fragment)
chain: LPVYHKHTFIVLYVDFKPQSGGGKCFNCYPAGVNITLANFNETKGPLCVDTSHFTTKYVAVYANVGRWSASINTGNCPFSFGKVNNFVKFGSVCFSLKDIPGGCAMPIVANWAYSKYYTIGSLYVSWSDGDGITGVPQPVEGV
B2: HCoV-229E S-protein S1 region, residues 17–560, WT (domain or fragment)
chain: QTTNGLNTSYSVCNGCVGYSENVFAVESGGYIPSDFAFNNWFLLTNTSSVVDGVVRSFQPLLLNCLWSVSGLRFTTGFVYFNGTGRGDCKGFSSDVLSDVIRYNLNFEENLRRGTILFKTSYGVVVFYCTNNTLVSGDAHIPFGTVLGNFYCFVNTTIGNETTSAFVGALPKTVREFVISRTGHFYINGYRYFTLGNVEAVNFNVTTAETTDFCTVALASYADVLVNVSQTSIANIIYCNSVINRLRCDQLSFDVPDGFYSTSPIQSVELPVSIVSLPVYHKHTFIVLYVDFKPQSGGGKCFNCYPAGVNITLANFNETKGPLCVDTSHFTTKYVAVYANVGRWSASINTGNCPFSFGKVNNFVKFGSVCFSLKDIPGGCAMPIVANWAYSKYYTIGSLYVSWSDGDGITGVPQPVEGVSSFMNVTLDKCTKYNIYDVSGVGVIRVSNDTFLNGITYTSTSGNLLGFKDVTKGTIYSITPCNPPDQLVVYQQAVVGAMLSENFTSYGFSNVVELPKFFYASNGTYNCTDAVLTYSSFGVCADGS

Columns and labels:
[1] = target: T1, soluble ectodomain of human aminopeptidase N (hAPN), residues 66–967, WT (human, UniProt P15144 66-967); assay: SPR; conditions: both partners purified
[2] = target: T1, soluble ectodomain of human …; assay: SPR; conditions: both partners purified; remark: listed apart in the source

T1 sequence (P15144 66-967): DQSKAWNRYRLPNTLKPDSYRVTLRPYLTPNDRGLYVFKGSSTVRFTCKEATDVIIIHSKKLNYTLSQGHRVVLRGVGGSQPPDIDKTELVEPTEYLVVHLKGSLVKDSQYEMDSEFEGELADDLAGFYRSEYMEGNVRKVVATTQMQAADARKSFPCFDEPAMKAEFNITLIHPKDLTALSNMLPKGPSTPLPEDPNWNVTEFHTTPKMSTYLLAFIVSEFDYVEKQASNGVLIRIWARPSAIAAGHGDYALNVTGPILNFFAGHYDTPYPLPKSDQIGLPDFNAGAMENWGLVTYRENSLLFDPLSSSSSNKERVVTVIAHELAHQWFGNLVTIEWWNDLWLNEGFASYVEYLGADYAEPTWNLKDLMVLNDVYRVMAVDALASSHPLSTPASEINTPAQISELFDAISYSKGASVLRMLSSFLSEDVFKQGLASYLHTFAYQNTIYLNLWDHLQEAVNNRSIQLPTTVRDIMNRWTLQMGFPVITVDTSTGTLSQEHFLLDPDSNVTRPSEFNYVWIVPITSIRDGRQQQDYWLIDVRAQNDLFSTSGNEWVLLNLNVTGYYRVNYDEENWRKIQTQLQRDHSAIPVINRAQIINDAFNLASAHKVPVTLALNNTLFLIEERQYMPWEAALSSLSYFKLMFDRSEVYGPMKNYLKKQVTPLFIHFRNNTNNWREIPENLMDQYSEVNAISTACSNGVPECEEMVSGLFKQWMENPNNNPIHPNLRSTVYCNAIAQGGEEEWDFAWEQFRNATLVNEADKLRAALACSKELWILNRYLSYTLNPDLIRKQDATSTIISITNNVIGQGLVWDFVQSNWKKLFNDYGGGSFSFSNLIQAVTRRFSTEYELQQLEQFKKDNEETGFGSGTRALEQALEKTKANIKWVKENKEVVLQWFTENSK

Binder	Kd [1]	koff [1]	kon [1]	Kd [2]	koff [2]	kon [2]
B1	434 nM	0.16 s⁻¹	360000 M⁻¹ s⁻¹	430 nM	0.16 s⁻¹	360000 M⁻¹ s⁻¹
B2				1630 nM	0.06 s⁻¹	39000 M⁻¹ s⁻¹

— paper PMC5701055 (Nature Communications, 2017)
